Laboratory results as given in patent US20240092942A1 (LEADARTIS S L, published 2024).

B1: urelumab (anti-hu4-1BB, BMS-663513) (antibody, V domains shown)
VH: QVQLQQWGAGLLKPSETLSLTCAVYGGSFSGYYWSWIRQSPEKGLEWIGEINHGGYVTYNPSLESRVTISVDTSKNQFSLKLSSVTAADTAVYYCARDYGPGNYDWYFDLWGRGTLVTVSS
VL: EIVLTQSPATLSLSPGERATLSCRASQSVSSYLAWYQQKPGQAPRLLIYDASNRATGIPARFSGSGSGTDFTLTISSLEPEDFAVYYCQQRSNWPPALTFGGGTKVEIK
B2: 4-1BB IgG (SAP3.28 IgG), anti-hu4-1BB chimeric antibody (antibody, V domains shown)
VH: QVQLQESGPGLVRPSQTLSLTCTVSGFSLTSYGVHWVRQPPGRGLEWIGVIWRGGSTDYNAAFMSRLSITKDNSKSQVFFEMNSLQADDTAIYYCASPLGTSWDAMDYWGQGSLVTVSS
VL: DIQMTQSPSSLSASVGDRVTITCRASQDISNYLNWYQQKPGKAPKLLIYYKSRLHSGVPSRFSGSGSGTDYTLTISSLQPEDFATYYCQQGNTLPYTFGQGTKVEIK
notes: Bivalent IgG with the Fc region of murine IgG1, supplied by Prof; M. Glennie; also called SAP3.28 mAb; 4-1EE IgG

What was measured:
[1] = target: hu4-1BB constitutively expressed on NF-kB-luc2/4-1BB Jurkat reporter cells (Promega, #JA2351) (human, UniProt Q07011 24-255); test: cell-based or functional assay
[2] = target: T1, recombinant His-tagged hu4-1BB (Sino Biological, #10014-H08H) (human, UniProt Q07011 24-186); test: titration ELISA on plastic immobilized His-tagged hu4-1BB, GAM-HRP
T1 construct: Bought; also called soluble hu4-1BB; not shown: His tag
T1 sequence (Q07011 24-186 limits assumed): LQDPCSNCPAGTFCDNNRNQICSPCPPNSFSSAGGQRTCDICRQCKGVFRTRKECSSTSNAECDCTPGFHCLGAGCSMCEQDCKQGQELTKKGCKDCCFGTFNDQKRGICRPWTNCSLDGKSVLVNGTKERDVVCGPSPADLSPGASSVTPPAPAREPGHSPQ

hu4-1BB constitutively expressed on NF-kB-luc2/4-1BB Jurkat reporter cells (Promega, #JA2351), sequence (Q07011 24-255): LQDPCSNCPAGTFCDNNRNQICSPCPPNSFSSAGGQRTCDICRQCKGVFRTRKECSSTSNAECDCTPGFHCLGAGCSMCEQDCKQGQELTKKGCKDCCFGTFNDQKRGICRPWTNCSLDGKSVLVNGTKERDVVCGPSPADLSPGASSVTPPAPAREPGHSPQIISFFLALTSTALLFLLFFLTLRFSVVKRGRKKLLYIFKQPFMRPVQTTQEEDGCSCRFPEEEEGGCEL

Binder	EC50 (read off the curve); NF-kB reporter, co-culture with CHO [Cont.) c] [1]	EC50 (read off the curve); NF-kB reporter, co-culture with CHO^huFcγRIIb [Cont.) c] [1]	EC50 (read off the curve) [2]
B1	~0.1 nM	~0.06 nM	–
B2	–	~1 nM	~0.2 mg/L
